Laboratory results reported in article PMC4764579 (2016).

Target: TRPV1 (Rattus norvegicus, UniProt O35433)
Assay: electrophysiology, Hill fit

Chain of TRPV1 (O35433 whole entry): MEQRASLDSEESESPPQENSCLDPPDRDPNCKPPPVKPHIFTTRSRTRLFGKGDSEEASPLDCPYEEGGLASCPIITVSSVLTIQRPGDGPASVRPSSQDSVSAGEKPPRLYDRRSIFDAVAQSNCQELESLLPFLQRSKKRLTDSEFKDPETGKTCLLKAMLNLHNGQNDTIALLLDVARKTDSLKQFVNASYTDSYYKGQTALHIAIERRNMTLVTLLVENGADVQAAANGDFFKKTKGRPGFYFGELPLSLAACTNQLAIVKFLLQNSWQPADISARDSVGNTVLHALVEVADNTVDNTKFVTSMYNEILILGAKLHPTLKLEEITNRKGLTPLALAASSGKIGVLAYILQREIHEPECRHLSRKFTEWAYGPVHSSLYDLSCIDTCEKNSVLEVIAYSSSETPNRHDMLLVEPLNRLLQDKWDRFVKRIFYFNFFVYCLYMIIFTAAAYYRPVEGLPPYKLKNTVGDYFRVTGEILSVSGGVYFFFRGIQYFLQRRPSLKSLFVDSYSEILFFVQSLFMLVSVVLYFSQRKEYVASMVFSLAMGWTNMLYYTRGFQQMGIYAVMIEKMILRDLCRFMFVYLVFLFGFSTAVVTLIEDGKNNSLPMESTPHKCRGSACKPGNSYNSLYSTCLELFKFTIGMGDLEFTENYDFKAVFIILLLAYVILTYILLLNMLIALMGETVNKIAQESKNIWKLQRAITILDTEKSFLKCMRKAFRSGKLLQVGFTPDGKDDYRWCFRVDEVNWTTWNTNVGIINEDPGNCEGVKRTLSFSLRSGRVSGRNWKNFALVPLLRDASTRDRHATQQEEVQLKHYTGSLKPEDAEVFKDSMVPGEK

TNCAKEGEVCGWGSKCCHGLDCPLAFIPYC [double-knot toxin (DkTx) K2 knot]
Kd: 8.5 µM
